Data published in patent US20220389066A1, “POLYPEPTIDES” (Affibody AB, priority 2019, published 2022).

What was measured:
[1] = target: T1, ZH 05 as periplasmic ABD fusion AQHDEALE-[ZH 05]-VDYV-[ABD]-YVPG (Streptococcus strain G148, UniProt P19909 254-299, limits assumed); experiment: SPR (Biacore 2000) screening; periplasmic Z-ABD captured on anti-ABD antibody, 200 nM boxA(disulfide); 1:1 model
T1 construct: domain: GA3
Method: (§1) Biacore screening of Z variants: The binding of Z variants to boxA(disulfide) was analyzed in an affinity screening using a Biacore 2000 instrument. A polyclonal goat anti-ABD antibody (goat anti-ABD) was immobilized on CM5 chip surfaces basically as described for other proteins in Example 3. For the kinetic screening, analytes were injected in two steps. First, a Z-ABD (where ABD is GA3) periplasmic extract was injected over the surface at 5 μl/min for 10 min. As a second step, 200 nM boxA(disulfide) was injected at 20 μl/min for 5 min, followed by 10 min of dissociation in running buffer HBS-EP. Glycine-HCl pH 2.0 (GE Healthcare, cat. no. BR100355) was used for regeneration of the antibody surfaces between the cycles. The temperature of the assay was 25° C. Before performing the kinetic analyses, the signal from 200 nM boxA(disulfide) injected over a reference surface containing goat anti-ABD but no Z-ABD sample was subtracted from the sensorgram of Z-ABD binding to boxA(disulfide). […] A periplasmic extract of ZH 01 was included in the screening analysis for comparison.
(§2) Biacore screening of Z variants: Seven new unique Z variants giving the highest response in ELISA-screen, ZH 04 (SEQ ID NO:4), ZH 05 (SEQ ID NO:5), ZH 06 (SEQ ID NO:6), ZH 07 (SEQ ID NO:7), ZH 08 (SEQ ID NO:8), ZH 09 (SEQ ID NO:9) and ZH 10 (SEQ ID NO:10) were submitted to a Biacore affinity screening together with ZH 01 (SEQ ID NO:1) and ZH 29 (SEQ ID NO:29; its binding motif is identical to that of ZH 01, but the sequence comprises scaffold amino acid variations V1A, D2E, Y5F, N52S and D53E). A single concentration of boxA(disulfide) was injected over each Z-ABD captured from periplasmic extracts on a sensor chip surface containing an anti-ABD antibody.

[2] = target: T2, ZH 06 as periplasmic ABD fusion AQHDEALE-[ZH 06]-VDYV-[ABD]-YVPG (Streptococcus strain G148, UniProt P19909 254-299, limits assumed); experiment: as above
T2 construct: domain: GA3
Method: as §1, §2

[3] = target: T3, ZH 08 as periplasmic ABD fusion AQHDEALE-[ZH 08]-VDYV-[ABD]-YVPG (Streptococcus strain G148, UniProt P19909 254-299, limits assumed); experiment: as above
T3 construct: domain: GA3
Method: as §1, §2

[4] = target: T4, ZH 09 as periplasmic ABD fusion AQHDEALE-[ZH 09]-VDYV-[ABD]-YVPG (Streptococcus strain G148, UniProt P19909 254-299, limits assumed); experiment: as above
T4 construct: domain: GA3
Method: as §1, §2

[5] = target: T5, ZH 10 as periplasmic ABD fusion AQHDEALE-[ZH 10]-VDYV-[ABD]-YVPG (Streptococcus strain G148, UniProt P19909 254-299, limits assumed); experiment: as above
T5 construct: domain: GA3
Method: as §1, §2

[6] = target: T6, ZH 01 as periplasmic ABD fusion AQHDEALE-[ZH 01]-VDYV-[ABD]-YVPG (Streptococcus strain G148, UniProt P19909 254-299, limits assumed); experiment: as above
T6 construct: domain: GA3
Method: as §1, §2

[7] = target: T7, ZH 04 as periplasmic ABD fusion AQHDEALE-[ZH 04]-VDYV-[ABD]-YVPG (Streptococcus strain G148, UniProt P19909 254-299, limits assumed); experiment: SPR (Biacore 2000) screening; periplasmic Z-ABD captured on anti-ABD antibody, 200 nM boxA(disulfide); 1:1 model; average of 2 measurements
T7 construct: domain: GA3
Method: as §1, with “comparison. […]” for “comparison.”

[8] = target: T8, ZH 29 as periplasmic ABD fusion AQHDEALE-[ZH 29]-VDYV-[ABD]-YVPG (Streptococcus strain G148, UniProt P19909 254-299, limits assumed); experiment: SPR (Biacore 2000) screening; periplasmic Z-ABD captured on anti-ABD antibody, 200 nM boxA(disulfide); 1:1 model; average of 3 measurements
T8 construct: domain: GA3
Method: as §1, with “comparison. […]” for “comparison.”

[9] = target: T9, ZH 07 as periplasmic ABD fusion AQHDEALE-[ZH 07]-VDYV-[ABD]-YVPG (Streptococcus strain G148, UniProt P19909 254-299, limits assumed); experiment: SPR (Biacore 2000) screening; periplasmic Z-ABD captured on anti-ABD antibody, 200 nM boxA(disulfide); 1:1 model; average of 8 measurements
T9 construct: domain: GA3
Method: as §1, with “comparison. […]” for “comparison.”

- Kd [1]: ~0.054 µM
- Kd [2]: ~0.071 µM
- Kd [3]: ~0.031 µM
- Kd [4]: ~0.091 µM
- Kd [5]: ~0.047 µM
- Kd [6]: ~0.0047 µM
- Kd [7]: ~0.054 µM
- Kd [8]: ~0.036 µM
- Kd [9]: ~0.044 µM
B1: boxA(disulfide), disulfide linked form of A-box domain of HMGB1 (other)
chain: MGKGDPKKPRGKMSSYAFFVQTCREEHKKKHPDASVNFSEFSKKCSERWKTMSAKEKGKFEDMAKADKARYEREMKTYIPPKGETKKKF
modifications: disulfide C23-C45
notes: also called b-boxA(disulfide)
